Results as given in the supplement of paper PMC7877785.
± gives the uncertainty stated by the source.

Assay: self-splicing fitness, log relative to wild type (ln ratio); higher = more splicing; Tetrahymena group I intron in knt gene, E. coli kanamycin selection, DiMSum; sequences stand for … in CUCUCU…GGAGGGAAAAGUUAUCAGGCAUGCACCUGGUAGCUAGUCUUUAAACCAAUAGAUUGCAUCGGUUUAAAAGGCAAGACCGUCAAAUUGCGGGAAAGGGGUCAACAGCCGUUCAGUACCAAGUCUCAGGGGAAACUUUGAGAUGGCCUUGCAAAGGGUAUGGUAAUAAGCUGACGGACAUGGUCCUAACCACGCAGCCAAGUCCUAAGUCAACAGAUCUUCUGUUGAUAUGGAUGCAGUUCACAGACUAAAUGUCGGUCGGGGAAGAUGUAUUCUUCUCAUAAGAUAUAGUCGGACCUCUCCUUAAUGGGAGCUAGCGGAUGAAGUGAUGCAACACUGGAGCCGCUGGGAACUAAUUUGUAUGCGAAAGUAUAUUGAUUAGUUUUGGAGUACUCGUGGUCG
Procedure, shortened: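 Fitness was computed with DiMSum as the error-weighted combination of replicate fold changes, kanamycin versus none, each normalised to wild type. The library randomised all eight intron nucleotides of the P1ex region, with the intron placed in the knt kanamycin-resistance gene on pET-22b(+) in E. coli BL21(DE3). Six replicate transformations were grown overnight at 37°C or 30°C on LB agar with or without 25 μg/mL kanamycin, plus 100 μg/mL carbenicillin, 50 μM IPTG and 0.2% rhamnose. Pooled colonies were amplicon-sequenced on an Illumina HiSeq 2500.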

Row | Sequence | self-splicing fitness (ln) (30 °C) | self-splicing fitness (ln) (37 °C)
1 | GAGAAGCAAUAUUACGAUAA | -2.02 ± 0.14 | -0.42 ± 0.15
2 | UUUUAGCAAUAUUACGUUUG | -1.6 ± 0.082 | -0.497 ± 0.12
3 | CCUGAGCAAUAUUACGCCCU |  | -1.73 ± 0.33
4 | CAAUAGCAAUAUUACGUUUA | -3.6 ± 0.19 | -2.13 ± 0.14
5 | CUGGAGCAAUAUUACGGUGU | -4.16 ± 0.36 | -2.02 ± 0.2
6 | AUAGAGCAAUAUUACGUUGA | -1.89 ± 0.12 | -1.4 ± 0.12
7 | ACCUAGCAAUAUUACGUUCG | -1.5 ± 0.078 | -0.444 ± 0.096
8 | GACUAGCAAUAUUACGGAAC | -1.61 ± 0.12 | -1.15 ± 0.17
9 | GCCUAGCAAUAUUACGCUAA | -1.28 ± 0.11 | 0.00419 ± 0.12
10 | AAUGAGCAAUAUUACGCAAU | -2.49 ± 0.23 | -2.25 ± 0.25
11 | CAGAAGCAAUAUUACGAACU | -2.12 ± 0.13 | -1.72 ± 0.17
12 | AACGAGCAAUAUUACGUCUU | -1.33 ± 0.074 | -0.279 ± 0.093
13 | AUAAAGCAAUAUUACGAUAG | -2.82 ± 0.15 | -0.468 ± 0.14
14 | ACUCAGCAAUAUUACGCUAG | -1.74 ± 0.094 | -1.3 ± 0.11
15 | GGGGAGCAAUAUUACGCAGA |  | -2.07 ± 0.47
16 | GAUAAGCAAUAUUACGCACU | -1.21 ± 0.16 | -0.284 ± 0.2
17 | CUGAAGCAAUAUUACGGCUU | -4 ± 0.34 | -2.84 ± 0.26
18 | ACAAAGCAAUAUUACGUACC | -1.13 ± 0.1 | -0.353 ± 0.12
19 | AUUCAGCAAUAUUACGAGCC | -2.87 ± 0.47 | -1.67 ± 0.45
20 | AAUGAGCAAUAUUACGGCGU | -1.43 ± 0.07 | -0.25 ± 0.097

Row | Sequence | self-splicing fitness (ln) (30 °C) | self-splicing fitness (ln) (37 °C)
21 | CUAGAGCAAUAUUACGCUGG |  | -2.1 ± 0.33
22 | UAAAAGCAAUAUUACGCACA | -0.0521 ± 0.12 | 0.516 ± 0.16
23 | CUAUAGCAAUAUUACGUGAC | -1.2 ± 0.15 | -0.55 ± 0.16
24 | GCAGAGCAAUAUUACGUAUA | -1.41 ± 0.22 | -2.76 ± 0.47
25 | AAGAAGCAAUAUUACGUGGA | -2.97 ± 0.12 | -2.44 ± 0.12
26 | UCCCAGCAAUAUUACGAAAA | -2.38 ± 0.2 | -0.834 ± 0.18
27 | AGAUAGCAAUAUUACGCAUU | -2.76 ± 0.21 | -1.02 ± 0.21
28 | GCGUAGCAAUAUUACGCUAA | -3.9 ± 0.27 | -2.25 ± 0.21
29 | GCAUAGCAAUAUUACGAACC | -1.45 ± 0.089 | 0.452 ± 0.1
30 | GGUUAGCAAUAUUACGUCAG | -3.16 ± 0.47 | 
31 | CAGCAGCAAUAUUACGACAC | -2.83 ± 0.23 | -2.45 ± 0.26
32 | CGCCAGCAAUAUUACGAGUU | -3.19 ± 0.15 | -3.16 ± 0.2
33 | UGGGAGCAAUAUUACGUAGC | -3.22 ± 0.27 | 
34 | UACGAGCAAUAUUACGAUCA | -1.89 ± 0.15 | -0.737 ± 0.13
35 | UCAAAGCAAUAUUACGCCAG | -1.35 ± 0.13 | -0.892 ± 0.18
36 | CGCCAGCAAUAUUACGAUCC | -3.12 ± 0.37 | 
37 | GGCCAGCAAUAUUACGAGAG | -3.27 ± 0.24 | -2.52 ± 0.25
38 | UAUUAGCAAUAUUACGAACU | -1.27 ± 0.11 | -0.806 ± 0.13
39 | CCGGAGCAAUAUUACGAACC |  | -1.97 ± 0.41
40 | GCUAAGCAAUAUUACGAUCU | -0.886 ± 0.13 | 0.178 ± 0.14
